Assay results reported in PMC8600089, “The development of a high-affinity conformation-sensitive antibody mimetic using a biocompatible copolymer carrier (iBody)” (The Journal of Biological Chemistry, 2021).
Starred links: 1 amine or outer side, 2 acyl side, 3 side chain; linkers in the order of their positions; H or OH if unused. Positions of bridges follow the written chain, without caps; N, C: chain ends. Groups on a side chain read outwards from the residue. *: point of attachment. PEG12 = NCCOCCOCCOCCOCCOCCOCCOCCOCCOCCOCCOCCOCCC(=O)O; Biotin = O=C1N[C@H]2[C@H](CS[C@H]2CCCCC(=O)*)N1; TBMB = c1c(C[*:1])cc(C[*:3])cc1C[*:2]

Target: T1, recombinant extracellular part of PSMA (construct not named; ELISA and SPR) (human, UniProt Q04609 44-750)
T1 construct: prostate-specific membrane antigen (PSMA), recombinant extracellular part; also called recombinant extracellular domain of PSMA; truncated version of the target enzyme
T1 sequence (Q04609 44-750): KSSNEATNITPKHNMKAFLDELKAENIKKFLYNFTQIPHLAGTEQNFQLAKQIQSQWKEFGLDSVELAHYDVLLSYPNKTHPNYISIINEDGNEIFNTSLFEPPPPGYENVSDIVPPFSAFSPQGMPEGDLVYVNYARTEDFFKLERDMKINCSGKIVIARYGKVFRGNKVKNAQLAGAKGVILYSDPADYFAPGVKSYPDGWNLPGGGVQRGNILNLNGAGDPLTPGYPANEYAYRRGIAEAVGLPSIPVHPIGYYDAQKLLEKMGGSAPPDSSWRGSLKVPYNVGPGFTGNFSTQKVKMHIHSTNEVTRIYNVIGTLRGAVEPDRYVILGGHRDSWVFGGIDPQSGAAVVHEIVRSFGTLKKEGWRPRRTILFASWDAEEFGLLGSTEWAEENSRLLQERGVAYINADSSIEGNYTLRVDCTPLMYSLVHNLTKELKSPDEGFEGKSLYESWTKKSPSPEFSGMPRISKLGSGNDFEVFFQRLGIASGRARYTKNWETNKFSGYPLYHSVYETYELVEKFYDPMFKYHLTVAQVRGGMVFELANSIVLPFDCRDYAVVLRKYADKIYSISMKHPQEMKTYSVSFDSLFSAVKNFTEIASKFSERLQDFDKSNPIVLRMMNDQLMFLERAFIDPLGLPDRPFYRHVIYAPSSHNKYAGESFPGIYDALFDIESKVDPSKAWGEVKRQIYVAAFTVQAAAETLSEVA
Details: both partners purified

B1: Peptide 1 (compound 1), TBMB-cyclized Ac-CDDECPDYVCGGSGK[PEG12-biotin]-NH2 (peptide)
peptide: Ac-CDDECPDYVCGGSGK([PEG12-Biotin])-NH2
modifications: linker 1-5-10 via TBMB
SMILES: CC(=O)N[C@H]1CSCc2cc3cc(c2)CSC[C@H](NC(=O)[C@H](CCC(=O)O)NC(=O)[C@H](CC(=O)O)NC(=O)[C@H](CC(=O)O)NC1=O)C(=O)N1CCC[C@H]1C(=O)N[C@@H](CC(=O)O)C(=O)N[C@@H](Cc1ccc(O)cc1)C(=O)N[C@@H](C(C)C)C(=O)N[C@H](C(=O)NCC(=O)NCC(=O)N[C@@H](CO)C(=O)NCC(=O)N[C@@H](CCCCNC(=O)CCOCCOCCOCCOCCOCCOCCOCCOCCOCCOCCOCCOCCNC(=O)CCCC[C@@H]1SC[C@@H]2NC(=O)N[C@@H]21)C(N)=O)CSC3
notes: bicyclic peptide selected by phage display against PSMA, with the GGSG spacer and an added lysine; also called the peptide; bicyclic peptide; source: synthetic peptide (SPPS, TBMB cyclization, RP HPLC); not shown: biotin (through a PEG12 linker on the C-terminal lysine), C-terminal, kept
- EC50: > 5000 nM

B2: iBody 1, poly(HPMA-co-Ma-β-Ala-compound 2-co-Ma-β-Ala-ATTO488-co-Ma-β-Ala-NH-ED-biotin) (designed binder)
peptide: CDDECPDYVCGGSGK
modifications: not fully specified; N-terminus acetylated; C-terminal amide; three cysteines cyclized with TBMB; lysine side chain carries (CO)CH2CH2(OCH2CH2)5-NH2 (compound 2), through which the peptide is joined to the HPMA copolymer backbone; the polymer also carries ATTO488 (3.0× per polymer) and biotin (11.6× per polymer)
notes: bicyclic Peptide 1 as compound 2, 9.8 copies per polymer (20.4 wt%); Not a polypeptide as a whole: about 9.8 copies of the peptide on a synthetic HPMA copolymer (Mn = 88,100 g/mol, Mw = 104,000 g/mol); also called the iBody; copies: 9.8
- EC50: 2 nM
